Measurements: article PMC10202384

Biological target: recombinant full-length SARS-CoV-2 spike protein with a C-terminal 8x His-tag (SARS-CoV-2) (UniProt P0DTC2)
Assay: BLI; spike with C-terminal 8x His-tag (0.35 μM) immobilised on nickel nitrilotriacetic acid biosensors; αIIbβ3 in solution, zero to 0.51 μM (68 to 512 nM); 20 mM tris pH 7.4, 137 mM NaCl, 1 mM MgCl2, 1 mM MnCl2, 1 mM CaCl2, 50% glycerol plus 1X Octet Kinetics Buffer; 25 °C; global fit

Substance: platelet-derived purified human αIIbβ3 protein (from UniProt P05106 27-788) (complex)
- Kd: 47 nM
